# Results from publication PMC9352680, “A comprehensive thermodynamic model for RNA binding by the Saccharomyces cerevisiae Pumilio protein PUF4”.
# Numbering of substitutions follows the chain as printed. Numbers in names are those of the source.
# T1: PUF4 RNA-binding domain (Saccharomyces cerevisiae, UniProt P25339 537-888)
# T1 sequence: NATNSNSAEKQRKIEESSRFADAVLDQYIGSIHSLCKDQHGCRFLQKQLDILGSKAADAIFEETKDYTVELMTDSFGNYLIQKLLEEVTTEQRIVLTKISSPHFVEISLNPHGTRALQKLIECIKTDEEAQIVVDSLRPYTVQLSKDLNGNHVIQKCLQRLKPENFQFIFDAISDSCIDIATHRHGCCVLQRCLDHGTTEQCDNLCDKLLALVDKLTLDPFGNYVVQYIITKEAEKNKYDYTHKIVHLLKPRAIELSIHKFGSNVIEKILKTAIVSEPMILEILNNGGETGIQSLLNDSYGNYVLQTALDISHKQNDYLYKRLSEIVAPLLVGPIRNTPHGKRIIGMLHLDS
# B1: Ib_S2_P4E.1_K4.1_C4.1_H4.1_A4.1_F4.1_[T8G]_[A9G]_T4.1 (ssRNA)
# RNA: UUUGAUUAAUAUGAUAUCGUUCUUUCUUGUAUAUGGUUCUUUCUCGAUAUCAUAUUAAUCUUU
# B2: Ib_S2_P4E.1_K4.1_C4.1_H4.1_[T1C]_A4.1_F4.1_[A9C]_T4.1 (ssRNA)
# RNA: B1 RNA with U28C, G35U, G36C
# B3: Ib_S2_P4E.1_K4.1_C4.1_H4.1_A4.1_[T5A]_F4.1_[T8C]_T4.1 (ssRNA)
# RNA: B1 RNA with U32A, G35C, G36A
# B4: Ic_S2_P4E.1_K4.1_C4.1_H4.1_A4.1_F4.1_[T8C]_[A9G]_T4.1 (ssRNA)
# RNA: B1 RNA with G35C
# B5: Ib_S2_P4E.1_K4.1_C4.1_H4.1_[G2A]_A4.1_F4.1_[A9G]_T4.1 (ssRNA)
# RNA: B1 RNA with G29A, G35U
# B6: Ib_S2_P4E.1_K4.1_C4.1_H4.1_[T3C]_A4.1_F4.1_[A9T]_T4.1 (ssRNA)
# RNA: B1 RNA with U30C, G35U, G36U
# B7: Ib_S2_P4E.1_K4.1_C4.1_H4.1_[T1G]_A4.1_F4.1_[A9T]_T4.1 (ssRNA)
# RNA: B1 RNA with U28G, G35U, G36U
# B8: Ib_S2_P4E.1_K4.1_C4.1_H4.1_A4.1_F4.1_[T8A]_[A9G]_T4.1 (ssRNA)
# RNA: B1 RNA with G35A
# B9: Ib_S2_P4E.1_K4.1_C4.1_H4.1_[A4G]_A4.1_F4.1_[A9C]_T4.1 (ssRNA)
# RNA: B1 RNA with A31G, G35U, G36C
# B10: Ic_S2_P4E.1_K4.1_C4.1_H4.1_A4.1_F4.1_[T8G]_[A9T]_T4.1 (ssRNA)
# RNA: B1 RNA with G36U
# B11: Ib_S2_P4E.1_K4.1_C4.1_H4.1_A4.1_[T5C]_F4.1_[T8A]_T4.1 (ssRNA)
# RNA: B1 RNA with U32C, G35A, G36A
# B12: Ib_S2_P4E.1_K4.1_C4.1_H4.1_[A4T]_A4.1_F4.1_[A9G]_T4.1 (ssRNA)
# RNA: B1 RNA with A31U, G35U
# B13: Ic_S2_P4E.1_K4.1_C4.1_H4.1_A4.1_F4.1_[T8G]_[A9C]_T4.1 (ssRNA)
# RNA: B1 RNA with G36C
# B14: Ib_S2_P4E.1_K4.1_C4.1_H4.1_[T1C]_A4.1_F4.1_[T8A]_T4.1 (ssRNA)
# RNA: B1 RNA with U28C, G35A, G36A
# B15: Ib_S2_P4E.1_K4.1_C4.1_H4.1_A4.1_[A6T]_F4.1_[T8A]_T4.1 (ssRNA)
# RNA: B1 RNA with A33U, G35A, G36A
# B16: Ic_S2_P4E.1_K4.1_C4.1_H4.1_A4.1_[A6T]_F4.1_[T8C]_T4.1 (ssRNA)
# RNA: B1 RNA with A33U, G35C, G36A
# B17: Ic_S2_P4E.1_K4.1_C4.1_H4.1_A4.1_F4.1_[T8C]_[A9C]_T4.1 (ssRNA)
# RNA: B1 RNA with G35C, G36C
# B18: Ia_S2_P4E.1_K4.1_C4.1_H4.1_A4.1_F4.1_[T8C]_T4.1 (ssRNA)
# RNA: B1 RNA with G35C, G36A
# B19: Ib_S2_P4E.1_K4.1_C4.1_H4.1_[G2C]_A4.1_F4.1_[T8C]_T4.1 (ssRNA)
# RNA: B1 RNA with G29C, G35C, G36A
# B20: Ib_S2_P4E.1_K4.1_C4.1_H4.1_[A4G]_A4.1_F4.1_[T8C]_T4.1 (ssRNA)
# RNA: B1 RNA with A31G, G35C, G36A
# B21: Ia_S2_P4E.1_K4.1_C4.1_H4.1_A4.1_F4.1_[A9C]_T4.1 (ssRNA)
# RNA: B1 RNA with G35U, G36C
# B22: Ic_S2_P4E.1_K4.1_C4.1_H4.1_A4.1_F4.1_[T8A]_T4.1 (ssRNA)
# RNA: B1 RNA with G35A, G36A
# B23: Ib_S2_P4E.1_K4.1_C4.1_H4.1_[A4T]_A4.1_F4.1_[T8C]_T4.1 (ssRNA)
# RNA: B1 RNA with A31U, G35C, G36A
# B24: Ib_S2_P4E.1_K4.1_C4.1_H4.1_[A4G]_A4.1_F4.1_[A9T]_T4.1 (ssRNA)
# RNA: B1 RNA with A31G, G35U, G36U
# B25: Ib_S2_P4E.1_K4.1_C4.1_H4.1_A4.1_[A6C]_F4.1_[T8A]_T4.1 (ssRNA)
# RNA: B1 RNA with A33C, G35A, G36A
# B26: Ib_S2_P4E.1_K4.1_C4.1_H4.1_[T1A]_A4.1_F4.1_[A9T]_T4.1 (ssRNA)
# RNA: B1 RNA with U28A, G35U, G36U
# B27: Ib_S2_P4E.1_K4.1_C4.1_H4.1_[A4G]_A4.1_F4.1_[A9G]_T4.1 (ssRNA)
# RNA: B1 RNA with A31G, G35U
# B28: Ib_S2_P4E.1_K4.1_C4.1_H4.1_[G2A]_A4.1_F4.1_[A9C]_T4.1 (ssRNA)
# RNA: B1 RNA with G29A, G35U, G36C
# B29: Ib_S2_P4E.1_K4.1_C4.1_H4.1_A4.1_[A6C]_F4.1_[T8C]_T4.1 (ssRNA)
# RNA: B1 RNA with A33C, G35C, G36A
# B30: Ib_S2_P4E.1_K4.1_C4.1_H4.1_[G2T]_A4.1_F4.1_[A9T]_T4.1 (ssRNA)
# RNA: B1 RNA with G29U, G35U, G36U
# B31: Ib_S2_P4E.1_K4.1_C4.1_H4.1_[G2T]_A4.1_F4.1_[A9G]_T4.1 (ssRNA)
# RNA: B1 RNA with G29U, G35U
# B32: Ib_S2_P4E.1_K4.1_C4.1_H4.1_A4.1_[T5A]_F4.1_[T8A]_T4.1 (ssRNA)
# RNA: B1 RNA with U32A, G35A, G36A
# B33: Ib_S2_P4E.1_K4.1_C4.1_H4.1_[A4G]_A4.1_F4.1_[T8A]_T4.1 (ssRNA)
# RNA: B1 RNA with A31G, G35A, G36A
# B34: Ib_S2_P4E.1_K4.1_C4.1_H4.1_[A4T]_A4.1_F4.1_[T8A]_T4.1 (ssRNA)
# RNA: B1 RNA with A31U, G35A, G36A
# B35: Ib_S2_P4E.1_K4.1_C4.1_H4.1_[A4C]_A4.1_F4.1_[A9C]_T4.1 (ssRNA)
# RNA: B1 RNA with A31C, G35U, G36C
# B36: Ib_S2_P4E.1_K4.1_C4.1_H4.1_[T3C]_A4.1_F4.1_[A9C]_T4.1 (ssRNA)
# RNA: B1 RNA with U30C, G35U, G36C
# B37: Ib_S2_P4E.1_K4.1_C4.1_H4.1_[G2C]_A4.1_F4.1_[A9T]_T4.1 (ssRNA)
# RNA: B1 RNA with G29C, G35U, G36U
# B38: Ib_S2_P4E.1_K4.1_C4.1_H4.1_A4.1_F4.1_[T8A]_[A9C]_T4.1 (ssRNA)
# RNA: B1 RNA with G35A, G36C
# B39: Ib_S2_P4E.1_K4.1_C4.1_H4.1_[A4C]_A4.1_F4.1_[T8C]_T4.1 (ssRNA)
# RNA: B1 RNA with A31C, G35C, G36A
# B40: Ic_S2_P3E.1_K3.1_C3.1_H3.1_A3.1_[A6C]_F3.1_T3.1 (ssRNA)
# RNA: UUUGAUUAAUAUGAUAUCGUUCUUUCUUGUAUCUAUUCUUUCUCGAUAUCAUAUUAAUCUUU
# B41: Ib_S2_P3E.1_K3.1_C3.1_H3.1_A3.1_[T5A]_[A6C]_F3.1_T3.1 (ssRNA)
# RNA: B40 RNA with U32A
# B42: Ic_S2_P3E.1_K3.1_C3.1_H3.1_A3.1_[T5A]_[A6T]_F3.1_T3.1 (ssRNA)
# RNA: B40 RNA with U32A, C33U
# B43: Ic_S2_P3E.1_K3.1_C3.1_H3.1_A3.1_[A6T]_F3.1_T3.1 (ssRNA)
# RNA: B40 RNA with C33U
# B44: Ib_S2_P3E.1_K3.1_C3.1_H3.1_A3.1_[T5C]_[A6T]_F3.1_T3.1 (ssRNA)
# RNA: B40 RNA with U32C, C33U
# B45: Ic_S2_P3E.1_K3.1_C3.1_H3.1_A3.1_[T5C]_[A6C]_F3.1_T3.1 (ssRNA)
# RNA: B40 RNA with U32C
# Molecular target: T1, PUF4 RNA-binding domain
# Test: Mg; RNA-MaP; 20 mM Na-HEPES pH 7.4, 30 mM KOAc, 0.75 mM MgCl2, 0.1% Tween-20, 5% glycerol, 0.1 mg/mL BSA, 2 mM DTT; 25 C; 0.0125-409.6 nM protein
# Conditions: tags: N-His6-TEV cleaved; C-SNAP kept, Cy3B-labelled; label: tethered on chip by stalled RNA polymerase
row,Binder,Kd
1,B1,58.6 nM
2,B2,607 nM
3,B3,58.5 nM
4,B4,7.89 nM
5,B5,203 nM
6,B6,957 nM
7,B7,1380 nM
8,B8,9.03 nM
9,B9,11.9 nM
10,B10,5.99 nM
11,B11,2.52 nM
12,B12,63.2 nM
13,B13,15.4 nM
14,B14,451 nM
15,B15,17.8 nM
16,B16,104 nM
17,B17,8.44 nM
18,B18,7.94 nM
19,B19,848 nM
20,B20,16.2 nM
21,B21,2.83 nM
22,B22,2.04 nM
23,B23,1250 nM

row,Binder,Kd
1,B24,5.78 nM
2,B25,10.7 nM
3,B26,1380 nM
4,B27,28.9 nM
5,B28,200 nM
6,B29,30.6 nM
7,B30,1670 nM
8,B31,> 2300 nM
9,B32,13.5 nM
10,B33,3.78 nM
11,B34,122 nM
12,B35,624 nM
13,B36,1070 nM
14,B37,983 nM
15,B38,6.86 nM
16,B39,> 2300 nM
17,B40,8.48 nM
18,B41,66 nM
19,B42,72.2 nM
20,B43,11.4 nM
21,B44,14.8 nM
22,B45,10.6 nM
